The experiment has as its target T1, Fen1, budding yeast, wild-type (budding yeast, UniProt P26793 1-382).
T1 construct: Fen1 (flap endonuclease), budding yeast; source: purified
T1 sequence (looked up): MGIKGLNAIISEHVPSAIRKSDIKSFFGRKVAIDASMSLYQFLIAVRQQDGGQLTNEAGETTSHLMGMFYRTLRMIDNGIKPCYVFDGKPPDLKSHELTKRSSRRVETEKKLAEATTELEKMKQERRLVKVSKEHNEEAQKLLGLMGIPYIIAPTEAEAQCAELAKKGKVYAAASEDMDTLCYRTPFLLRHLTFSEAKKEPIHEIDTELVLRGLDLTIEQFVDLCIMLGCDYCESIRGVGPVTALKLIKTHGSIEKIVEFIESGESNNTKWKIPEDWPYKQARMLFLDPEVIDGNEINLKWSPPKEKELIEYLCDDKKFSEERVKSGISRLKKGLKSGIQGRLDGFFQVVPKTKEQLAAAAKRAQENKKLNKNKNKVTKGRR
Nature of the experiment: pull-down; purified wild-type or mutant Fen1 mixed with PCNA; Fen1 affinity-purified on anti-FLAG beads; co-isolated PCNA by immunoblot. The conditions noted are these: both partners purified.

Experimental findings from article PMC6546911 (Nature Communications, 2019) are described below.

B1: Yeast PCNA (Pol30p) (natural protein, budding yeast, UniProt P15873 1-258, looked up)
chain: MLEAKFEEASLFKRIIDGFKDCVQLVNFQCKEDGIIAQAVDDSRVLLVSLEIGVEAFQEYRCDHPVTLGMDLTSLSKILRCGNNTDTLTLIADNTPDSIILLFEDTKKDRIAEYSLKLMDIDADFLKIEELQYDSTLSLPSSEFSKIVRDLSQLSDSINIMITKETIKFVADGDIGSGSVIIKPFVDMEHPETSIKLEMDQPVDLTFGAKYLLDIIKGSSLSDRVGIRLSSEAPALFQFDLKSGFLQFFLAPKFNDEE
notes: PCNA (Pol30p), budding yeast; source: E. coli BL21 (DE3), purified
Regarding B1, the binding result was “binds”.
